Tests used:
Conditions in all cases: label: 32P
GABPα = target: T1, GABPα (UniProt Q00422 Q00422:1-454); assay: EMSA; in vitro translated; supershift
T1 sequence: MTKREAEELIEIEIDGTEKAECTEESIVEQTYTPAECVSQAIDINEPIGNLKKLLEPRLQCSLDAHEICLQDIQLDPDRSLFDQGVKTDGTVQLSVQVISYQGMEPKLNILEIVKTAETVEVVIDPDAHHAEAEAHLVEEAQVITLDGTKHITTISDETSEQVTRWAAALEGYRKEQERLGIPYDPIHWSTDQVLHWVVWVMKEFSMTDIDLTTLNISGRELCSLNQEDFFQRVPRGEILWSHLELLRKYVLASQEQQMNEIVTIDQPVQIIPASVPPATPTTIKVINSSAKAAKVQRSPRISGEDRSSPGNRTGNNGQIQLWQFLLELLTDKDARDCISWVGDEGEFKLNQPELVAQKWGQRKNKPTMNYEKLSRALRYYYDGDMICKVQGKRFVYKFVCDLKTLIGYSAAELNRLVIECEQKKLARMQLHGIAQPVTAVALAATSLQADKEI
Experimental: (§1) Next, T4 […] kinase, buffer andy γ³²P were mixed and the mixture was reacted for 30 minutes at room temperature. The reaction solution was passed through a Micro Spin G-25 column (Amersham Pharmacia Biotech), and the collected column fraction was centrifuged to obtain labeled probes. Those having radioactivity of 30000 cpm or more per 1 µl were used.
(§2) 10 μg of protein was mixed with reaction buffer and probe, and reacted for 30 minutes at room temperature. For purposes of supershift, they were reacted for 1 hour at 4° C. before being reacted with the probe. The reaction solution was electrophoresed for about 3 hours at 100v, 50 mA in non-denatured gel. The gel was dried, and analyzed by autoradiography using a Fujii BAS2000.

Fli-1 = target: T2, Fli-1 (UniProt P26323 P26323:1-452); assay: EMSA; in vitro translated; supershift
T2 sequence: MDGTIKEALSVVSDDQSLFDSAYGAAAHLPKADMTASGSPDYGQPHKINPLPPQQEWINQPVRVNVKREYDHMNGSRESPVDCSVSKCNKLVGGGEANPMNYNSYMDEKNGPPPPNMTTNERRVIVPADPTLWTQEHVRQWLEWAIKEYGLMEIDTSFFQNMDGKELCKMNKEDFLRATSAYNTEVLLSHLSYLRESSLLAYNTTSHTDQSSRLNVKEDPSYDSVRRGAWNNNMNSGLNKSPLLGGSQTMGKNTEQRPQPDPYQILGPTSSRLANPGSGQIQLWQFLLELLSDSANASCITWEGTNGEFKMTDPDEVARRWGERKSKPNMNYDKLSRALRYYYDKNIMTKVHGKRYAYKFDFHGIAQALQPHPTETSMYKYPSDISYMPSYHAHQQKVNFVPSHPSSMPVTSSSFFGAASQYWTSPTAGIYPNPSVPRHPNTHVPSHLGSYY
Experimental: as §1, §2

Ets1 = target: T3, Ets1 (UniProt P27577 P27577:1-440); assay: EMSA; in vitro translated; supershift
T3 sequence: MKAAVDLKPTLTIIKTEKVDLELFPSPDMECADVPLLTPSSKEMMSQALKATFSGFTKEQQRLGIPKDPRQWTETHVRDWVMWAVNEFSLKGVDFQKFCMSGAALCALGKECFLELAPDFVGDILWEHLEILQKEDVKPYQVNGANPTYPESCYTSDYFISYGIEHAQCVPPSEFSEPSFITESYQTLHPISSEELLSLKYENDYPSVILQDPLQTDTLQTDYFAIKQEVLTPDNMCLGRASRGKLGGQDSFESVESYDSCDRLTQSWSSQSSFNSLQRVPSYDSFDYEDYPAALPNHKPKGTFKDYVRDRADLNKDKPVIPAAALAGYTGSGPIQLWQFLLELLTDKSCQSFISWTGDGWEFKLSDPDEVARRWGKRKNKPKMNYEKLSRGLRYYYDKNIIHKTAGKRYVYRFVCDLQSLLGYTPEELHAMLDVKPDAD
Experimental: as §1, §2

GABPα/GABPβ complex = GABPα/GABPβ complex (UniProt Q00422;Q00420 Q00422:1-454,Q00420:2-383); assay: EMSA; new complex bands on adding GABPβ to GABPα; GABPβ antibody interferes with complex a
GABPα/GABPβ complex, sequence (Q00420 2-383, one chain of several): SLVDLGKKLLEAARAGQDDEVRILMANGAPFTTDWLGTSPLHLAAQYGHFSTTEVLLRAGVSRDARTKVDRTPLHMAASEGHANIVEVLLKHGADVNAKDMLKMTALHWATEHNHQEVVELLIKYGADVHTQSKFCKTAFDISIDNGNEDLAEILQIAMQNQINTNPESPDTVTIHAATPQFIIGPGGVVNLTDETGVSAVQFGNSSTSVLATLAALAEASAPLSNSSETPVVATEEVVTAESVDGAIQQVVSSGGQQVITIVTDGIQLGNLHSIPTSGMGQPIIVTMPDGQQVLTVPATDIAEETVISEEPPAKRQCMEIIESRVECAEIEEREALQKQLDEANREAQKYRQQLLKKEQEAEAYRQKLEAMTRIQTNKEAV
Experimental: as §1, §2

Measured: binding result

B1: EBS WT (-85 to -70) (dsDNA)
DNA 1: GCGCCGCCGGAAGTGA
DNA 2: TCACTTCCGGCGGCGC
binds: all assays above

From patent US20080070298, “Promoter of Synoviolin Gene” (published 2008)
